The target of assay [1] is human IgG (human). Briefly: QCM; pH 6.
Assay [2] deals with mouse IgG (mouse). Briefly: QCM; pH 6.
Assay [3] has as its target human IgG (human). Briefly: QCM; pH 7.4.
Assay [4] deals with mouse IgG (mouse). In words: QCM; pH 7.4.
For assay [5], the target named is human IgG Fc (human). Briefly: QCM; pH 6.
Assay [6] concerns the target mouse IgG Fc (mouse). Briefly: QCM; pH 6.
In assay [7] the target is human IgG Fc (human). Briefly: QCM; pH 7.4.
For assay [8], the target named is mouse IgG Fc (mouse). Briefly: QCM; pH 7.4.

Our source for the Kd values is patent US20140220017A1.

For SpAB (from UniProt P38507 212-269), the Kd with human IgG (human) [1] worked out at 350 nM; with mouse IgG (mouse) [2] it was 15000 nM; in the assay with human IgG (human) [3], 9 nM; with mouse IgG (mouse) [4], 380 nM.
SpAD (from UniProt P38507 93-153): the Kd with human IgG (human) [1] is 148 nM; with human IgG Fc (human) [5] it was 30 nM; with mouse IgG (mouse) [2] it was 773 nM; with mouse IgG Fc (mouse) [6] it was 980 nM; with human IgG (human) [3], 22 nM; with human IgG Fc (human) [7], 14 nM. Also, the Kd with mouse IgG (mouse) [4] is 56 nM; with mouse IgG Fc (mouse) [8], 54 nM.
